This test addresses recombinant full-length PfCSP (Plasmodium falciparum circumsporozoite protein, strain NF54) (Plasmodium falciparum NF54, UniProt P19597).

Where a chain is given by its changes, count along the chain named.

Sequence of recombinant full-length PfCSP (Plasmodium falciparum circumsporozoite protein, strain NF54) (P19597 20-375): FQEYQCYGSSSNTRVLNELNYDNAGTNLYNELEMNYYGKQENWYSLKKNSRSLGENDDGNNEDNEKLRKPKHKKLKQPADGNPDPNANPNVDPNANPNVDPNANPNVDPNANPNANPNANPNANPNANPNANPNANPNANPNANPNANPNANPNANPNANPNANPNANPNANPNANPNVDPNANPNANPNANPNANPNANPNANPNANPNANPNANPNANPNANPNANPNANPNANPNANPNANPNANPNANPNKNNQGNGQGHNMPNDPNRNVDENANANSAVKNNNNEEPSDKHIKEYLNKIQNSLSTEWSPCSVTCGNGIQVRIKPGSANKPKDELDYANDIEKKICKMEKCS

B1: CL-512264 (antibody, V domains shown)
VH: QVQLVESGGGVVQPGRSLRLSCVTSGFTFSNFGMHWVRQAPGKGLEWVAIIWYDGSNKFYADSLKGRFTISRDNSKNTLFLQMNSLRAEDTAVYYCARAHTVTTANDKYGTDVWGQGTTVTVSS
VL: DIQMTQSPSTLSASVGDRVTITCRASQSISSWLAWYQHKPGKAPKLLIYKASSLESGVPSRFSGSGSGTEFTLTISSLQPDDFATYFCQQYNSYWTFGQGTKVEIK
For the molecule B1, the binding result was “binds”.

B2: CL-513069 (antibody, V domains shown)
VH: QVQLVESGGGVVQPGKSLRLSCEASGFTFSNYGMHWVRQAPGKGLDWVAIIWHDGGNKFYADSVRGRFTISRDNSKNTLFLQMNSLRAEDSAVYYCARVFDFRDSCYTMDVWGQGTTVTVSS
VL: B1 VL with H38Q, T72S, F87Y, N92T, S93R, K102R, K106Q
On to B2, for which the binding result is “binds”.

B3: CL-512870 (antibody, V domains shown)
VH: QVQLVESGGGVVQPGRSLRLSCEASGFTFSHYGMHWVRQAPGRGLEWVAIIWYDGSNTYYRDSVKGRFTISRDNSKDTLFLQMNSLRPDDTAVYYCARALYYDSGSLFDFWGQGTLVTVSS
VL: B1 VL with H38Q, S56T, S67F, T74S, F87Y, Q89L, S93I
Turning to B3, the binding result is recorded as “binds”.

B4: CL-513279 (antibody, V domains shown)
VH: QVQLVESGGGVVQPGRSLRLSCAASGFTFSNFGMHWVRQAPVKGLEWVALIWYDGSNKFYADSVQGRFTISRDNSKNILYLQMNSLRAEDTAVYYCAKVEARGVDYHSYGMDVWGQGTTVTVSS
VL: B1 VL with H38Q, K45Q, F87Y, N92K, S93Y
For B4, the binding result is given as “binds”.

B5: CL-512871 (antibody, V domains shown)
VH: QVLLVESGGGVVQPGRSLRLSCAASGFTFSNYGMHWVRQAPGKGLEWVALIRYDGINKFYADSVKGRFTISRDNSENTLYMQINSLRAEDTAMYYCAKAYNTSSDYYYGMDVWGQGTTVTVSS
VL: B1 VL with S31T, H38Q, S53R, F83L, F87Y, Y91F, K106R
In the case of B5, the binding result is “binds”.

B6: CL-513274 (antibody, V domains shown)
VH: QVQLVESGGGVVQPGRSLRVSCAASGFTFSNYGMYWVRQAPGKGLEWVALIWHDGSNKFYEDSVKGRFTISRDNSKNTLYLQMNSLRAEDTAVYYCARAGYFQGSGSFLDYWGQGTLVTVSS
VL: B1 VL with S31T, H38Q, N92S
In the case of B6, the binding result is listed as “binds”.

B7: CL-513462 (antibody, V domains shown)
VH: B6 VH with L50V, S56T
VL: B1 VL with H38Q, N92S
As to B7, the binding result was “binds”.

B8: CL-512761 (antibody, V domains shown)
VH: QVQLVESGGGVVQPGTSLRLSCAASGFTFSNYGMHWVRQAPGKGLEWVSITWYDESNKFYADSVKGRFTISRDNSKNTLYLQMNSLRAEDTAVYYCARAYDTLTGYRAQKYGMDVWGQGTTVTVSS
VL: B1 VL with S28R, S31T, H38Q, Y49N, K50E, S53R, F87Y
Regarding B8, the binding result was “binds”.

B9: CL-513617 (antibody, V domains shown)
VH: QVQLVESGGGVVQPGRSLRLSCAASGFIFSNYGMYWVRQTPDKGLEWVALIWYDGGNKFYSDSVKGRFTVSRDNSKNTLYLQMNSLRDEDTALYYCARAGYFYGSGSSLDKWGQGTLVTVSS
VL: B1 VL with T20S, S31I, H38Q, T72S, F87Y, S93R
In the case of B9, the binding result is reported as “binds”.

B10: CL-512564 (antibody, V domains shown)
VH: QVQLVESGGGVVQPGRSLRLSCAASGFTFSNSGMHWVRQAPGKGLEWVAIIWYDGSHKFYADSVKGRFTISRDNSKNTLYLQMNSLRIEDTAMYYCVRSYNWNYPVRGDYKYGMDVWGQGTTVTVSS
VL: B1 VL with Y36F, H38Q, K45N, K50M, E55Q, F87Y, Y91F, S93T
With B10, the binding result is reported as “binds”.

B11: CL-512275 (antibody, V domains shown)
VH: B1 VH with R16G, L18F, V23E, I50L, N57H, K65T, F80Y, A88V, T101S, S124P
VL: B1 VL with K42R, V58I
Regarding B11, the binding result is on record as “binds”.

B12: CL-512319 (antibody, V domains shown)
VH: B1 VH with V23A, T24A, I50V, N57H, F80Y, S85N, T101P, A105D, N106Y, T111M
VL: B1 VL with A13S, S31I, Y36I, H38Q, F87Y, Y91F, N92Y, Q99L
B12: the binding result was “binds”.

B13: CL-513701 (antibody, V domains shown)
VH: QVQLVESGGGVVQTGRSLRLSCTASGFIFSNYGMYWVRQAPGKGLEWVALIWYDGSNKYYVDSVKGRFTISRDNSKNTLYLQMNSLRAEDTAVYYCARAGKYSGSGSYLDSWGQGTLVTVSS
VL: B1 VL with T10S, L11V, S28G, H38Q, K50T, E55Q, E70D, N92S, S93R
In the case of B13, the binding result is reported as “binds”.

B14: CL-513780 (antibody, V domains shown)
VH: B13 VH with T14P, E46D, D62G
VL: B1 VL with Q6P, T10I, S28N, H38Q, N92Y
B14: the binding result is given as “binds”.

B15: CL-512374 (antibody, V domains shown)
VH: QVQLVESGGGVVQPGRSLRLSCAASGFTFSSYGMHWVRQAPGKGLEWVAVIWYDGSNKYYADSVKGRFTISRDNSKNTLYLQMNSLRAEDTAVYYCARDGGGTTRSFDLWGRGTLVTVSS
VL: QSVLTQPPSVSGAPGQRVTISCTGSSSNIGAGYDVHWYQQLPGTAPKLLIYGNSNRPSGVPDRFSGSKSGTSASLAITGLQAEDEADYYCQSYDSSLSGSMFGGGTKLTVL
For B15, the binding result was “binds”.

B16: CL-513041 (antibody, V domains shown)
VH: QEHLVESGGGVVQPGRSLRLSCAASGFTFSNSGMHWVRQAPGKGLEWVAVIWYDGSNKFYADSVRGRFTISRDNSNNTLYLQMNSLRAEDTALYYCARDRLFSGSWNWFDPWGQGTLVTVSS
VL: EIVLTQSPATLSLSPGERATLSCRASQSVSTYLAWYQQKPGQAPRLLIYDASNRATGIPARFSGSGSGTDFTLTISSLEPEDFAVYYCQQRSNWFTFGGGTKVEIK
Regarding B16, the binding result is on record as “binds”.

B17: CL-513083 (antibody, V domains shown)
VH: QVQLVESGGGVVQPGRSLRLSCAASGFTFSNYGMHWVRQAPGRGLEWVAIIWYDGSNKYYEDSVKGRFTISRDNSKNTLYLQMNSLRAEDTAVYYCARAQWLDQRHYHYTMDVWGQGTTVTVSS
VL: not shown
As for B17, the binding result is reported as “binds”.

B18: CL-512508 (antibody, V domains shown)
VH: QVQLVESGGGVVQPGTSLRLSCGASGFTFSSYGMHWVRQAPGKGLEWVAIIWYDGNNKYYADSVKGRFTISRDNSKNTLYLQMNSLRAEDTAVYYCAKVGQFSTSSWGAFDIWGQGTMVTVSS
VL: EIVLTQSPGTLPLSPGERATLSCRASQSVSSSQLAWYQQKPGQAPRLLIYGASSRATAIPDRFSGSGSGTDFTLTISRLEPEDFAVYYCQQYSRLWTFGQGTKVEIK
For the molecule B18, the binding result is “binds”.

B19: CL-512296 (antibody, V domains shown)
VH: QVQLVESGGGVVQPGRSLRLSCAASGFTFSNYGMHWVRQAPGKGLEWVAVIWYDGSKKFYADSVMGRFTISRDNSKNTLVLQMNSLGAEDTAVYYCARDRGYSGYVFDYWGQGTLVTVSS
VL: QSALTQPASVSGSPGQSIAISCTGTSSDVGGYNFVSWYRHHPGKAPKLMIYDVSNRPSGVSNRFSGSKSGNTASLTISGLQAEDEADYYCCSYAGSCSVFGGGTKLTVL
Consider B19, for which the binding result is on record as “binds”.

B20: CL-513691 (antibody, V domains shown)
VH: QVQLVESGGDVVQTGRSLRLSCAASGFTFSNYGMHWVRQAPDKGLEWVAIIWYDGSNKFYADSVKGRFTISRDNSKNTLYLHIHSLRAEDTAVYYCARDDRGDSAGPYFVYWGQGTLVTVSS
VL: EIVMTQSPATLSVSPGERATLSCRASQSVSDNLAWYQQRPGQAPRLLIYGASIRATGIPARFGGSGSGTEFTLTISILQSADFAVYYCQQHDSWPWTFGQGTKVEIK
In the case of B20, the binding result was “binds”.

B21: CL-512206 (antibody, V domains shown)
VH: QVQLVESGGGVVQPGRSLRLSCAASGFTFSHYGMHWVRQAPGKGLEWVAVIWYDGNNKFYADSVKGRFTISRDNSNNTLYLQMNSLRAEDTAVYHCVRERTGATSRGFDFWGQGTLVTVSS
VL: QSVLTQPPSVSAAPGQKVTISCSGSDSNIEKYYVSWYQQLPGSAPKLLIYDNNKRPSGIPDRFSGSKSGTSATLGITGLQTGDEAVYYCGTWDSSLSTGVFGGGTKLTVL
In the case of B21, the binding result was “binds”.

B22: CL-512469 (antibody, V domains shown)
VH: QMQLVESGGGVVQPGRSLTLSCEASGFTFSNYGMHWVRQAPGKGLEWVAIIWFDGSHRFYADAVEGRFTISRDNSKNTLFLQMTSLRAEDAAVYYCARVGQFSSSSWGAFDIWGQGTVVTVSS
VL: EIVLTQSPGTLSLSPGESVTLSCRASQIISNTHLAWYQQKPGQAPSLLIYGASSRATGIPDRFSGSGSGTDFTLTISRLEPEDFAVYYCQQYGRLWTFGQGTKVEIK
In the case of B22, the binding result is listed as “binds”.

B23: CL-512459 (antibody, V domains shown)
VH: QVQLVESGGGVVQPGRSLRLSCTASGFTFSDYGMHWVRQAPGKGLEWVSIIWYDGSKKYYADSVQGRFTISRDNSKNTLYLQMSSLRAEDTAVYYCARAYGSGSYYTFNYWGQGTLVTVSS
VL: EIVMTQSPATLSVSPGERATLSCRASQSVNSNLAWYQQKPGQAPRLLIYGASTRATGFPARFIGSGSGTDFTLTINSLQSEDFAVYYCQQYNHWWTFGQGTKVEIK
Regarding B23, the binding result is reported as “binds”.

B24: CL-513094 (antibody, V domains shown)
VH: QVQLVESGGGVVQPGRSLRLSCAASGFTFSGSGMHWVRQAPGRGLEWVAIIWYDGSHKYYVDSVQGRFIISRDNSKNTLYLEMNNLRVEDTAVYYCVRAYPSGSSNDKYGMDVWGQGTTVTVSS
VL: not shown
As to B24, the binding result is reported as “binds”.
